Assay type in all cases: cell-based
The subject of data set [1] is endogenous genome targets (ACTB, HSP90AA1). The data set can be described thus: Arrayed SSAP library screening, mKate knock-in assay (editing efficiency). As to conditions: average of HSP90 and ACTB, 3 days after transfection; for Editing Efficiency (Normalized, Average, two targets): fold over negative control (Flag_HA); for Editing Efficiency (Absolute, Average, two targets): percent of mKate knock-in. The method, then:
Arrayed SSAP library screening on endogenous genome targets (ACTB. HSP90AA1) using mKate knock-in assay.
SSAP-encoding plasmids were purified and quantified.
(§1) Each SSAP encoding plasmid was tested in duplicate, including a negative control (same plasmid encoding Flag_HA which is not expected to promote gene editing). Transfections were in 96-well plates and transfection efficiency was estimated to be 50%.
(§2) Three days after transfection, mKate positive cells and cell viability were quantified across all replicates, along with positive (original RecT SSAP) and negative (Flag-HA control protein) controls. […] At the same time, the cell viability was measured by live cell counts via flow cytometry, to help quantify the fitness effect of SSAP on mammalian cells.
(§3) SSAP proteins are identified by Uniparc deposit number and SEQ ID NO. Alignment numbers correspond to SSAPs in FIGS. 58, 59, and 60.

Another data set relates to mammalian cells. Briefly: Arrayed SSAP library screening, cell viability by live cell counts via flow cytometry. The method, then: as §1, §2, §3
Another data set deals with gene editing with Cas9. Briefly: Screen of 322 new SSAP proteins, gene editing activity with Cas9 (Table 5). Also on record: Cas9 with SSAP activity: scale not given here. In short, it runs like this:
(§4)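 Editing screen of 322 newly identified, synthesized SSAPs, each co-used with Cas9 and with dCas9.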

The subject of the next data set is gene editing with dCas9. Briefly: Screen of 322 new SSAP proteins, gene editing activity with dCas9 (Table 5). Also on record: dCas9 with SSAP activity: scale not given here. In outline: as §4
The subject of data set [2] is gene editing with Cas9 and dCas9. Briefly: Screen of 322 new SSAP proteins, activity across all experiments (Cas9 and dCas9, Table 5). Further details: scale not given here. In outline:
as §4

B1: SSAP_158: SEQ ID NO: 327; Nakamurella lactea (protein)
chain: ASNLAARAAEQVEQQTAPNRPPTIKEQIGRMESQFALAMPRGSEAAQLVRDAITAINTNPQLAECTPASVLGALMTCAQLGLRPGVLGHAWVLPFRSKGVMQAQLVIGYQGLVELAHRTGQVASLIAREVHERDHFDVDYGLADSLIHKPLLNGDRGPVTGYYAIVKFKGGGHSFIYASKADVEAHRDKFSKMKSFGPWVDNFDSMALKTVVRMLAKWMPKSTEFANAISADEGVRVDYSPTADVAQATEYVQPQLEEAPVEGVVVSEGGES
modifications: Nakamurella lacteal
notes: Nakamurella lactea
As for B1, in data set [1], the “Editing Efficiency (Normalized, Average, two targets)” value came out at 5.44 and the “Editing Efficiency (Absolute, Average, two targets)” value was 13.45. Moreover, the “Cell Viability (Average, two targets)” value with mammalian cells was found to be 0.9945. Besides, in the data set with gene editing with Cas9, the “Cas9 with SSAP activity” value was −1.229 and the “Cas9 with SSAP activity (normalized)” value was −0.520. Further, in the data set on gene editing with dCas9, the “dCas9 with SSAP activity” value is given as −6.910 and the “dCas9 with SSAP activity (normalized)” value was −1.386. The “Activity across all experiments” value in data set [2] is reported as −4.070.

B2: SSAP_197: SEQ ID NO: 366; Arsenophonus sp. ENCA (protein, listed as Arsenophonus sp.)
chain: NTELETMNNVYDNLQSVIMQQGIAALLPAQVTPEQFTRTAATALIENVDLQNADKQSLVLALTRCAKDGLMPDGREAALVVRSTKVNKQFVKKAVYMPMVDGVIKRARQSGQVANIIAKVVYSQDEFEYVIDENGEHLTHRPAFVDGDDIVKVYAFAKLNSGELVVEVMSRAGVEKIRDTVQSAKYDSSPWVKWFDRMALKTVIHRLARRLPCASELFSLFEVYEDANSTEKTLRMAPASFKRLSIN
For B2, in data set [1], the “Editing Efficiency (Normalized, Average, two targets)” value was found to be 5.661 and the “Editing Efficiency (Absolute, Average, two targets)” value is 14.025. For the same molecule, the “Cell Viability (Average, two targets)” value with mammalian cells stood at 1.021. For the same molecule, in the data set on gene editing with Cas9, the “Cas9 with SSAP activity” value is listed as −2.785 and the “Cas9 with SSAP activity (normalized)” value was −1.134. In the data set on gene editing with dCas9, the “dCas9 with SSAP activity” value was −6.622 and the “dCas9 with SSAP activity (normalized)” value is on record as −1.370. Moreover, the “Activity across all experiments” value in data set [2] is −4.703.

B3: SSAP_235: SEQ ID NO: 404; Streptomyces sp. adm13(2018) (protein, listed as Streptomyces sp.)
chain: SQIGNEIARQSHSPAAIIEQHKADLAVVAASHVRVDTFARLAVGVLRQNEKLAAAAANNPGSLMSALMTAARLGLEPGTEQFYLRPIKRKGQLEVQGIVGYQGIVELIYNAGAAQSVVVEVVRARDEFAWTPGALDEHRPPRWPGAMKQPHHKVDWFGDRGPLVGAYAYAVMQGGAISKVVVLNRDHIARAKAKSDGADTDYSPWRTDEEAMWLKTAARRLGKWVPTSAEKRTGVIERLDTPPAPLNEIDPDEDDEPIDGELVD
Regarding B3, in data set [1], the “Editing Efficiency (Normalized, Average, two targets)” value is reported as 4.251 and the “Editing Efficiency (Absolute, Average, two targets)” value was found to be 10.53. Also, the “Cell Viability (Average, two targets)” value in the data set with mammalian cells is listed as 0.8847. Also, in the data set on gene editing with Cas9, the “Cas9 with SSAP activity” value was −5.016 and the “Cas9 with SSAP activity (normalized)” value is listed as −0.970. In addition, in the data set with gene editing with dCas9, the “dCas9 with SSAP activity” value is −5.457 and the “dCas9 with SSAP activity (normalized)” value is given as −1.152. In data set [2], the “Activity across all experiments” value was −5.237.

B4: SSAP_6: SEQ ID NO: 175 (protein)
chain: STALATLAGKLAERVGMDSVDPQELITTLRQTAFKGDASDAQFIALLIVANQYGLNPWTKEIYAFPDKQNGIVPVVGVDGWSRIINENQQFDGMDFEQDNESCTCRIYRKDRNHPICVTEWMDECRREPFKTREGREITGPWQSHPKRMLRHKAMIQCARLAFGFAGIYDKDEAERIVENTAYTAERQPERDITPVNDETMQEINTLLIALDKTWDDDLLPLCSQIFRRDIRASSELTQAEAVKALGFLKQKATEQKVAA
Take B4: in data set [1], the “Editing Efficiency (Normalized, Average, two targets)” value was found to be 4.879 and the “Editing Efficiency (Absolute, Average, two targets)” value came to 12.075. Further, in the data set on mammalian cells, the “Cell Viability (Average, two targets)” value is recorded as 1.282. Moreover, the “Cas9 with SSAP activity” value with gene editing with Cas9 was −8.056. In the data set with gene editing with dCas9, the “dCas9 with SSAP activity” value is given as −5.703 and the “dCas9 with SSAP activity (normalized)” value is reported as −1.399. In data set [2], the “Activity across all experiments” value was −6.879.

B5: SSAP_16: SEQ ID NO: 185 (protein)
chain: MAKENYSDPNGKLLNSITTFEVNGEEVKLSGNIIRDYLVSGNAEVTDQEIIMFLQLCKYQKLNPFLNEAYLVKFKNTKGPDKPAQIIVSKEAFMKRAETHEQYDGFEAGVIVERGGEIIELEGAVSLASDKLLGGWAKVFRKDRNRPVSVRISEKEFNKRQSTWNTMPLTMMRKTAVVNAMREAFPDNLGAMYTEEEQGSLQNTETSVQQEIKQNANAEVLDIPSQQNEVPDFKEVREPEHVEMPPIYGEQQSTPPARPY
With B5, in data set [1], the “Editing Efficiency (Normalized, Average, two targets)” value is given as 8.461 and the “Editing Efficiency (Absolute, Average, two targets)” value was 20.95. In addition, the “Cell Viability (Average, two targets)” value with mammalian cells is 1.146. For the same molecule, in the data set with gene editing with Cas9, the “Cas9 with SSAP activity” value is −0.858 and the “Cas9 with SSAP activity (normalized)” value is recorded as −0.452. In addition, in the data set on gene editing with dCas9, the “dCas9 with SSAP activity” value is −5.666 and the “dCas9 with SSAP activity (normalized)” value is given as −1.047. Further, the “Activity across all experiments” value in data set [2] is reported as −3.262.

B6: SSAP_262: SEQ ID NO: 431; YqaK Schleiferilactobacillus shenzhenensis LY-73 (protein, listed as Schleiferilactobacillus shenzhenensis)
chain: SAVSESKDLQHVDQLSVLNSAMTAASLNLPINQNLGFFYLVPYKGIAQAQMGYKGYIQLAQRSGQYQRLNAIPVYADEFGSWNPLTEELDYTPHFEDRKASDKPVGYVGFFKLANGFEKTVYWSRKQIEAHRDRFSKSSKSSASPWNTDFDAMALKTVLRNLITKWGPMTTDIQRANDADEGDYKNDLSTDTSEPKDVTPGASLEQFLGETDQQQKPATKPAPKKKAEEAKPNDLKPDVTHDPNEHTEQTSLSDDDLPFD
On to B6, for which, in data set [1], the “Editing Efficiency (Normalized, Average, two targets)” value is recorded as 3.676 and the “Editing Efficiency (Absolute, Average, two targets)” value was found to be 9.1025. Besides, in the data set with mammalian cells, the “Cell Viability (Average, two targets)” value worked out at 1.122. Besides, in the data set with gene editing with Cas9, the “Cas9 with SSAP activity” value is −2.947 and the “Cas9 with SSAP activity (normalized)” value is reported as −0.511. In the data set with gene editing with dCas9, the “dCas9 with SSAP activity” value is given as −6.590 and the “dCas9 with SSAP activity (normalized)” value is given as −1.417. Further, the “Activity across all experiments” value in data set [2] was −4.769.

B7: SSAP_193: SEQ ID NO: 362; Mesotoga sp. TolDC (protein, listed as Mesotoga sp.)
chain: KASEIASMVKKEDERRNHKPDPLAGIVKNLTSIKGEIANALPDAGITPERMIRIVVTLLRQNKSLAEAAMQNPASLLGAVMMAAQLGLDPTNGLDQCALVPRKGKVCFDIMYEGLVELGYRSDRMESIVARTVYEKDTFSLKYGLNEELVHIPYLDGDPGESKGYYMVGKLKGGGNIIVYMTKEQVHKIRDRYSVAYKAGLSGSRKDSPWFTSEDRMGEKTVVKAGFRWIPKSPIIRTALALDETAREASRLPMRN
Consider B7, for which, in data set [1], the “Editing Efficiency (Normalized, Average, two targets)” value turned out to be 5.034 and the “Editing Efficiency (Absolute, Average, two targets)” value worked out at 12.465. In addition, the “Cell Viability (Average, two targets)” value in the data set on mammalian cells was 1.147. Besides, in the data set with gene editing with Cas9, the “Cas9 with SSAP activity” value is given as −0.442 and the “Cas9 with SSAP activity (normalized)” value was −0.140. Further, in the data set with gene editing with dCas9, the “dCas9 with SSAP activity” value was −5.951 and the “dCas9 with SSAP activity (normalized)” value is −1.083. Also, the “Activity across all experiments” value in data set [2] is given as −3.196.

B8: SSAP_305: SEQ ID NO: 474 in b312 (Table 9 prints 424); Clostridium akagii (protein, listed as Clostridium akagii)
chain: ATSESLKNQLVNKETRPPKDPFKALVYSAGIKKRFEDMLDKQANGFITSLLNLKQDKLKSCDDFTVLGSALKAAALKLPIDPNLGFAWIIPFKNHGKLEAQFQIGYKGFIQMAQRSGQYKKLNVTEIYEGQLKSFNPLTEEIVLDLDNIKSDLRKINKRYLIVMRMNLLALHLRKISKG
Regarding B8, in data set [1], the “Editing Efficiency (Normalized, Average, two targets)” value amounted to 4.612 and the “Editing Efficiency (Absolute, Average, two targets)” value stood at 11.425. Further, the “Cell Viability (Average, two targets)” value in the data set with mammalian cells worked out at 0.5578. Moreover, in the data set with gene editing with Cas9, the “Cas9 with SSAP activity” value is recorded as 0.745 and the “Cas9 with SSAP activity (normalized)” value worked out at 0.408. Moreover, in the data set with gene editing with dCas9, the “dCas9 with SSAP activity” value is reported as −6.032 and the “dCas9 with SSAP activity (normalized)” value was −1.721. In addition, the “Activity across all experiments” value in data set [2] is −2.644.

B9: SSAP_211: SEQ ID NO: 380; unclassified Streptomyces (protein, listed as Streptomyces sp.)
chain: SQIGNAIATRDEGPAAQIEVYRDEYAALVPSHVNADQWVRLAVGAIRGNDDLLKAAGNDIGLFLREMKTAARLGLEPGTEQFYLTPRKSKAHGGRPVIKGIVGYQGIVELIYRAGAASTVIVEAVRQNDVFRYVPGRDDRPVHEIDWFGQDRGPLVGVYAYAVMKDGAVSKVVVLNKARVMELKAKSDSKNSPYSPWNTNEEAMWLKSGVRQLAKWVPTSAEFRRDQLLAHTDTADGVIASVSAPPLPPQSAALEDLDPDDEGPIDGELLDD
Take B9: in data set [1], the “Editing Efficiency (Normalized, Average, two targets)” value amounted to 5.517 and the “Editing Efficiency (Absolute, Average, two targets)” value was found to be 13.65. In addition, the “Cell Viability (Average, two targets)” value with mammalian cells was 0.3563. For the same molecule, in the data set with gene editing with Cas9, the “Cas9 with SSAP activity” value is recorded as 2.771 and the “Cas9 with SSAP activity (normalized)” value is reported as 4.679. In addition, in the data set on gene editing with dCas9, the “dCas9 with SSAP activity” value is −5.365 and the “dCas9 with SSAP activity (normalized)” value is given as −0.904. Further, the “Activity across all experiments” value in data set [2] was −1.297.

The record behind these values is patent US20250034594A1, “RNA-GUIDED GENOME RECOMBINEERING AT KILOBASE SCALE” (THE BOARD OF TRUSTEES OF THE LELAND STANFORD JUNIOR …, priority 2021, published 2025).
